Reference: patent US20150017162A1 (OMEROS, published 2015)

B1: scFv clone 17N16 (scFv)
scFv: QVQLQQSGPGLVKPSQTLSLTCAISGDSVSSTSAAWNWIRQSPSRGLEWLGRTYYRSKWYNDYAVSVKSRITINPDTSKNQFSLQLNSVTPEDTAVYYCARDPFGVPFDIWGQGTMVTVSSKLSGSASAPKLEEGEFSEARVSYVLTQPPSVSVAPGQTARITCGGNNIGSKNVHWYQQKPGQAPVLVVYDDSDRPSGIPERFSGSNSGNTATLTVSRVEAGDEADYYCQVWDTTTDHVVFGGGTKLTVLAAAGSEQKLISEEDLNSHHHHHH
B2: scFv daughter clone 17N16m_d17N9 (scFv)
chain: QVQLQQSGPGLVKPSQTLSLTCAISGDSVSSTSAAWNWIRQSPSRGLEWLGRTYYRSKWYNDYAVSVKSRITINPDTSKNQFSLQLNSVTPEDTAVYYCARDPFGVPFDIWGQGTMVTVSSSYELIQPPSVSVAPGQTATITCAGDNLGKKRVHWYQQRPGQAPVLVIYDDSDRPSGIPDRFSASNSGNTATLTITRGEAGDEADYYCQVWDIATDHVVFGGGTKLTVLAAAGSEQKLISE
B3: NimoAb101 (antibody, V domains shown)
VH: EVQLVESGGGLVQPGRSLKLSCLVSGFTFSNFGMNWIRQAPGKGLEWVASISSGGTYIYHADTLKGRFTISRENAKNTLYLQMTSLRSEDTALYYCARGPYHSRYIPYLMDAWGQGASVTVSS
VL: DIQMTQSPGSLCASLGETVTIECRASDDIYSNLAWYQQKPGNSPQLLIFDGNRLADGVPSRFSGSGSGTQYSLKMKSLQFEDVASYFCQQYNNYPLTFGSGTKLEIKR
B4: scFv clone 17D20 (scFv)
scFv: QVTLKESGPVLVKPTETLTLTCTVSGFSLSRGKMGVSWIRQPPGKALEWLAHIFSSDEKSYRTSLKSRLTISKDTSKNQVVLTMTNMDPVDTATYYCARIRAGGIDYWGQGTLVTVSSKLSGSASAPKLEEGEFSEARVQPVLTQPPSVSVSPGQTASITCSGDKLGDKFAYWYQQKPGHSPVLVIYQDNKRPSGIPGRFSGSNSGNTATLTISGTQAMDEADYYCQAWDSSTAVFGTGTKVTVLAAAGSEQKLISEEDLNSHHHHHH

Columns and labels:
[1] = molecular target: T1, human MASP-2 (human, UniProt O00187 16-686); assay: cell-based or functional assay
[2] = molecular target: T1, human MASP-2; assay: cell-based or functional assay; remark: listed apart in the source

T1 sequence (O00187 16-686): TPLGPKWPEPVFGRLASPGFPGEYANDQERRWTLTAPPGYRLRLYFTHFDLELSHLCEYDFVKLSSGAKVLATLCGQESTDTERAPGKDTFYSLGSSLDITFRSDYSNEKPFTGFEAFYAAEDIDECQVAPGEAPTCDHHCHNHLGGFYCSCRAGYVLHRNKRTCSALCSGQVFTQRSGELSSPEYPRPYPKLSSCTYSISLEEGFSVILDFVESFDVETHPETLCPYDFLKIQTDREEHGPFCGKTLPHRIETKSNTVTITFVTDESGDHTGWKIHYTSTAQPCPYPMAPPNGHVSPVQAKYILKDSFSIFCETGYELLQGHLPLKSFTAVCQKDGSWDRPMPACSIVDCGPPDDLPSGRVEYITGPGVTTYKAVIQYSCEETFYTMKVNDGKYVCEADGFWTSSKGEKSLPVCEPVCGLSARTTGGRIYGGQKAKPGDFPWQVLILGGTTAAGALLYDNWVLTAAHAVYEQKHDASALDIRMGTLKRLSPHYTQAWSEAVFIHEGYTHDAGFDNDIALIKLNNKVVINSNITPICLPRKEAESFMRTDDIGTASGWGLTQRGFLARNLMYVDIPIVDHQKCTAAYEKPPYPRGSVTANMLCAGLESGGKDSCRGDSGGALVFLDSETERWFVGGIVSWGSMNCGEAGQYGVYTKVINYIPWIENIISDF

Binder | IC50, C3 assay, 1% human serum (average value) [1] [nM] | IC50, C4 deposition in full human serum [2] [µg/mL]
B1 | 68 | 
B2 | 48 | 
B3 |  | 0.0318
B4 | 38 | 
